Test [1] addresses chimeric protein βGal-139S(FM)PPH84 (E. coli; human).
Test [2] deals with chimeric protein βGal-117S4HPPH34 (E. coli; human).

This passage reports recovery rate of hPTH(1-84) excised from the chimeric protein (HPLC) and excision efficiency of hPTH(1-34) from the chimeric protein results from US5885821.

As to Kex2-660 (enzyme), the recovery rate of hPTH(1-84) excised from the chimeric protein (HPLC) in test [1] was determined as 75%. Further, the excision efficiency of hPTH(1-34) from the chimeric protein in test [2] was greater than 90%.
